The target of the test is cynomolgus CD40 overexpressed on CHO cells (cynomolgus) [GFP: P42212]. In words: flow cytometry on CHO cells expressing cynomolgus CD40. Background: Flow cytometry measures light scatter and fluorescence of single cells or particles in a stream.

For the substance CP870893-IgG2 (antibody), the EC50 (in general, the concentration that produces a half-maximal response) amounted to 7.28 nM.

For the origin of these results see patent EP4538288A1.
